US20050176062A1, “Method of identifying ligands for nuclear receptors” (priority 2002, published 2005)
Where no end group is shown, it is not given here. The star is where a group is joined. Biotin = O=C1N[C@H]2[C@H](CS[C@H]2CCCCC(=O)*)N1

B1: non-biotinylated 20-mer GRIP1 peptide … (peptide)
peptide: GTSLKEKHKILHRLLQDSSS
modifications: not fully specified
B2: biotinylated 24-mer GRIP1 peptide (Biotinyl-GSTHGTSLKEKHKILHRLLQDSSS-NH2) (peptide)
peptide: Biotin-GSTHGTSLKEKHKILHRLLQDSSS-NH2
SMILES: CC[C@H](C)[C@H](NC(=O)[C@H](CCCCN)NC(=O)[C@H](Cc1c[nH]cn1)NC(=O)[C@H](CCCCN)NC(=O)[C@H](CCC(=O)O)NC(=O)[C@H](CCCCN)NC(=O)[C@H](CC(C)C)NC(=O)[C@H](CO)NC(=O)[C@@H](NC(=O)CNC(=O)[C@H](Cc1c[nH]cn1)NC(=O)[C@@H](NC(=O)[C@H](CO)NC(=O)CNC(=O)CCCC[C@@H]1SC[C@@H]2NC(=O)N[C@@H]21)[C@@H](C)O)[C@@H](C)O)C(=O)N[C@@H](CC(C)C)C(=O)N[C@@H](Cc1c[nH]cn1)C(=O)N[C@@H](CCCNC(=N)N)C(=O)N[C@@H](CC(C)C)C(=O)N[C@@H](CC(C)C)C(=O)N[C@@H](CCC(N)=O)C(=O)N[C@@H](CC(=O)O)C(=O)N[C@@H](CO)C(=O)N[C@@H](CO)C(=O)N[C@@H](CO)C(N)=O
notes: Synthetic (Mimotopes #814201), immobilized on a streptavidin coated SA-chip; also called biotinylated GRIP1 peptide; immobilized GRIP1 peptide
B3: (His)6ERα-LBD301-553 (receptor, UniProt P03372 301-553, looked up)
chain: SKKNSLALSLTADQMVSALLDAEPPILYSEYDPTRPFSEASMMGLLTNLADRELVHMINWAKRVPGFVDLTLHDQVHLLECAWLEILMIGLVWRSMEHPGKLLFAPNLLLDRNQGKCVEGMVEIFDMLLATSSRFRMMNLQGEEFVCLKSIILLNSGVYTFLSSTLKSLEEKDHIHRVLDKITDTLIHLMAKAGLTLQQQHQRLAQLLLILSHIRHMSNKGMEHLYSMKCKNVVPLYDLLLEMLDAHRLHAPT
notes: Control protein, expressed in E. coli, purified by Ni-NTA and size exclusion; Tested alone, after preincubation with E2 (10 µM) and with the antagonist BA31257; also called ER-LBD; not shown: (His)6 tag
B4: (His)6ERa-LBD301-553: control protein, His-tagged ERα ligand binding domain 301-553, cloned and expressed in E. coli (protein)
chain: B3 chain
modifications: left off: small tags and cut ends

How the values were obtained:
[1] = target: biotinylated 24-mer GRIP1 peptide (Biotinyl-…-NH2) (mouse); experiment: Biacore SPR, biotinylated peptide on streptavidin SA-chip, RORα-LBD injected
[2] = target: T1, (His)6RORa-LBD304-556 (Homo sapiens, UniProt P35398); experiment: X-ray crystallography of (His)6RORa-LBD304-556 (ligand in the ligand binding pocket); settings: 1.88 Å diffraction data
T1 construct: Crystals are obtained for the construct (His)6RORa-LBD304-556 and diffraction data are collected to 1.88 Å; 6xHis (N); made in house; host or cells: Sf9 insect cells (baculovirus)
T1 sequence (P35398 304-556 isoform P35398-1): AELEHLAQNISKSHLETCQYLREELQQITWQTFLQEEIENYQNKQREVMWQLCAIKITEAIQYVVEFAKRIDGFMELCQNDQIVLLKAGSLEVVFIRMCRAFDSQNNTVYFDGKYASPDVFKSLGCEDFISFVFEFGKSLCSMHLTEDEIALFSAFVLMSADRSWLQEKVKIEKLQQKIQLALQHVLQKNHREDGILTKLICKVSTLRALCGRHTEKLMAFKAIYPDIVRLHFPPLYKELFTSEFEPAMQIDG
Text: Crystals are obtained for the construct (His)6RORa-LBD304-556 and diffraction data are collected to 1.88 Å at the synchrotron (SNBL, ESRF Grenoble). The structure is solved ab initio with a Hg-derivative.
The excellent fit to the electron density allows the identification of the ligand to be cholesterol. […] Based on the X-ray structure, proposals are made for cholesterol derivatives, and in particular cholesterol sulfate is proposed as a ligand with a higher affinity to RORa than cholesterol, because of the electrostatic interactions with two Arg-side chains at the hydrophilic end of the LBP. Confirmation of the presence of cholesterol and comparative binding studies between cholesterol and cholesterol sulfate are further achieved by mass spectrometry on construct (His)6RORa-LBD269-556.

[3] = target: T2, (His)6RORa-LBD269-556 (Homo sapiens, UniProt P35398); experiment: GC-MS of the hexane extract of (His)6RORa-LBD269-556 (identification of bound ligands); settings: GC/MS after BSTFA derivatization, protein from Sf9 cells
T2 construct: Extraction is performed by mixing 2 ml of a solution containing (His)6RORa-LBD269-556 at 4.6 mg/ml; made in house; host or cells: Sf9 insect cells (baculovirus)
T2 sequence (P35398 269-556 isoform P35398-1): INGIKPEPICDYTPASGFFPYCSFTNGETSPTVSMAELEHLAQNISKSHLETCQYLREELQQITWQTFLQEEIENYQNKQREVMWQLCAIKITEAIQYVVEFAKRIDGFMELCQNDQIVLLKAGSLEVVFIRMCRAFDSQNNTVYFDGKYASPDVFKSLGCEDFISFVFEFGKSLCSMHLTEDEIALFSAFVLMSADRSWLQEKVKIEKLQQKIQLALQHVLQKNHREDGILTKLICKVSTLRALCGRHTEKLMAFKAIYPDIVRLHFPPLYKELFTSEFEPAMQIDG
Description: Extraction is performed by mixing 2 ml of a solution containing (His)6RORa-LBD269-556 at 4.6 mg/ml and 2 ml of hexane and shaking for 1 minute. The aqueous phase is extracted a second time using the same procedure. The organic phases are pooled and evaporated to dryness under nitrogen. The extract is dissolved in […] pyridine. An aliquot of 10 ml is derivatized with 5 ml N,O-bistrimethylsilyl-trifluoroacetamide (BSTFA) at 60° C. for 30 min. Reference compounds cholesterol and 7-dehydrocholesterol (Sigma) are derivatized following the same procedure. For structure elucidation, the underivatized and the derivatized sample and reference compounds are analyzed by GC/MS, respectively.
The GC/MS system consists of a Carlo Erba Mega 5160 gas chromatograph, which is coupled to a Finnigan TSQ-700 mass spectrometer equipped with an electron impact ion source (EI). The ion source is heated to a temperature of 150° C., filament current is 20 mA, electron multiplier voltage 1000V, and the conversion dynode is set to 15 kV. The scan range is m/z 100-700 with a scan time of 2 seconds. The gas chromatographic separation is performed on a 10 m×0.2 mm Duran glass column coated with a […] film of SDPE-08 using hydrogen as carrier gas at a constant flow rate of 2.5 ml/min. The temperature program is set to 100-330° C. at a rate of 6° C./min. The GC/MS interface temperature is set to 350° C. […]

[4] = target: (His)6RORα-LBD269-556 (human) (UniProt P35398); experiment: Biacore SPR competition: free 20-mer peptide inhibits binding of RORα-LBD to the immobilized 24-mer GRIP1 peptide
[5] = target: B3; experiment: Biacore SPR, biotinylated peptide on SA-chip, ER-LBD without added ligand (basal)
[6] = target: B3; experiment: Biacore SPR, biotinylated peptide on SA-chip, ER-LBD preincubated with E2 (10 µM)
[7] = target: B2; experiment: Biacore SPR, ER-LBD preincubated with E2 (10 µM) against ER-LBD without ligand
[8] = target: T3, ERα-LBD / GRIP1 peptide interaction (Homo sapiens, UniProt P03372); experiment: Biacore binding assay of (His)6ERa-LBD301-553 to immobilized GRIP1 peptide (positive control); settings: basal level, no ligand; read-out: apparent Kd of ERa-LBD binding to immobilized GRIP1 peptide
T3 construct: Control proteins (His)6ERα-LBD301-553 and (His)6cytohesin-1 are cloned and expressed in E. coli; (His)6; made in house; host or cells: E. coli
T3 sequence (P03372 301-553): B3 chain

Q: Which Kd [1] does the source give for “(His)6RORα-LBD269-556 (from UniProt P35398 269-523) (receptor)” here?
A: Its Kd is 241 nM.

Q: For `CC(C)CCC[C@@H](C)[C@H]1CC[C@H]2[C@@H]3CC=C4C[C@@H](O)CC[C@]4(C)[C@H]3CC[C@]12C` [Cholesterol], which “ligand found in the LBP by electron density” value [2] is on record?
A: Its value is “unambiguous identification of the ligand as cholesterol”.

Q: And the “SIC-% of compound in the extract of (His)6RORa-LBD269-556” value [3]?
A: The value was 77.4%.

Q: Which “SIC-% of compound in the extract of (His)6RORa-LBD269-556” value [3] does the source give for `CC(C)CCC[C@@H](C)[C@H]1CC[C@H]2C3=CC=C4C[C@@H](O)CC[C@]4(C)[C@H]3CC[C@]12C` [7-Dehydrocholesterol] here?
A: The value was 18.3%.

Q: B1 was tested. Which IC50 [4] did it give?
A: The IC50 was 3000 nM.

Q: What does the source list for B2?
A: Kd [5]: ~450 nM; Kd [6]: ~70 nM

Q: Which “fold increase of binding affinity” value [7] does the source give for B3 here?
A: The value was 6.5 fold.

Q: For B4, which Kd [8] is on record?
A: The Kd was roughly 450 nM.
